Measurements as given in patent CN116829596A.

Assays:
[1] = target: 人类血浆激肽释放酶 (human plasma kallikrein) (human) (UniProt P03952); experiment: SPR, 37 C, pH 6 against pH 7.4
[2] = target: 人类血浆激肽释放酶 (human plasma kallikrein) (human) (UniProt P03952); experiment: SPR, 37 C, pH 6.0
[3] = target: 人类血浆激肽释放酶 (human plasma kallikrein) (human) (UniProt P03952); experiment: SPR, 37 C, pH 7.4 or pH 6.0
凝血酶A (thrombin A) = experiment: cell-based or functional assay
[4] = target: 人类血浆激肽释放酶 (human plasma kallikrein) (human) (UniProt P03952); experiment: cell-based or functional assay
丝氨酸穿膜蛋白酶 = experiment: cell-based or functional assay
[5] = target: 胰蛋白酶、人类胰酶 (trypsin, human pancreas) (human) (UniProt P07477); experiment: cell-based or functional assay
[6] = target: 人类血浆激肽释放酶 (human plasma kallikrein) (human) (UniProt P03952); experiment: SPR, 37 C, pH 7.4

Chain of UniProt P03952 (P03952 20-390 S143N limits assumed, chain 1 of 2): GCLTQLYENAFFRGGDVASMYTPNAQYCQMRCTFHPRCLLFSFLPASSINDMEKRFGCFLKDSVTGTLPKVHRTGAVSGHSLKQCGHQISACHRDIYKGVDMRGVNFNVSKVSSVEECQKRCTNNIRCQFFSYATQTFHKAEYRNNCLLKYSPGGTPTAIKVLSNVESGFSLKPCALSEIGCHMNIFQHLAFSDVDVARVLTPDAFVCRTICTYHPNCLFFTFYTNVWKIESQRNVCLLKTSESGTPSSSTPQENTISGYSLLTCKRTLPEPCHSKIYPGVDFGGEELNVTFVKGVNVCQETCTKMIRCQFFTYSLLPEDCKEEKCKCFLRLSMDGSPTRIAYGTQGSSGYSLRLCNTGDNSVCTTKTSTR
Chain of UniProt P03952 (P03952 391-638 limits assumed, chain 2 of 2): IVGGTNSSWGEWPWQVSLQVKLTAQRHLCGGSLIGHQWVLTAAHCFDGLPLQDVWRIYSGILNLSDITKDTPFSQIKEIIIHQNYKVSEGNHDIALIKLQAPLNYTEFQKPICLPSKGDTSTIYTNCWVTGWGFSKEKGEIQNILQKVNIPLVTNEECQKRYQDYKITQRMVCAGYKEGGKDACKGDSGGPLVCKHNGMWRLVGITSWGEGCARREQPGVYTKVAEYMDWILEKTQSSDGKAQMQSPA

**Q.** How did the fold change of KD between pH 6 and pH 7.4 [1] turn out when DX-2930 (antibody) was run?
**A.** > 10 倍

**Q.** And the Kd [2]?
**A.** 236 nM

**Q.** And the fold affinity for plasma kallikrein over prekallikrein [3]?
**A.** > 1000 倍

**Q.** What about the 丝氨酸蛋白酶抑制分析，IC50 (凝血酶A (thrombin A)) of the same substance?
**A.** > 1000 nM

**Q.** And the IC90，HMWK功能分析 [4]?
**A.** 300 nM

**Q.** What about the 丝氨酸蛋白酶抑制分析，IC50 (丝氨酸穿膜蛋白酶) of the same substance?
**A.** > 1000 nM

**Q.** What about the 胰蛋白酶抑制分析，IC50 [5] of the same substance?
**A.** 243 to 376 nM

**Q.** And the Kd [6]?
**A.** 18 nM
